# Reference: patent publication US20080227711A1 (LABORATOIRES SERONO, published 2008)
# T1: murine CXCL2/MIP-2 (murine, UniProt P10889 28-100)
# T1 sequence: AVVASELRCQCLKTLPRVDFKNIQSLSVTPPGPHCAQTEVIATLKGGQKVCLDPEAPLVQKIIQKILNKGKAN
# T2: CXCL8/IL-8 (UniProt P10145 28-99, limits assumed)
# T2 construct: also called 125I-CXCL8/IL-8; 125I-IL-8
# T2 sequence (looked up): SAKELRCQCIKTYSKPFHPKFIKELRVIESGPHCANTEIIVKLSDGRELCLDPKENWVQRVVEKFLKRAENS
# T3: murine CXCL1/KC (murine, UniProt P12850 25-96)
# T3 sequence: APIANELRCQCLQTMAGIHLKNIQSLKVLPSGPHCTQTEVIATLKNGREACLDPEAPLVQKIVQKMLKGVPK
# T4: CXCL1/Gro-alpha (UniProt P09341 35-107)
# T4 construct: also called Gro-α; 125I-CXCL1/Gro-alpha
# T4 sequence: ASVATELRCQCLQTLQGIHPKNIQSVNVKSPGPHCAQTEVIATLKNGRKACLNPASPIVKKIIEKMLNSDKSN
# T5: CCL4/MIP-1-beta (UniProt P13236 24-92)
# T5 construct: also called MIP-1β
# T5 sequence: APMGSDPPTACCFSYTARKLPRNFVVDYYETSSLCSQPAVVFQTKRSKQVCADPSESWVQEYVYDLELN
# T6: CCL18/PARC (UniProt P55774 21-89)
# T6 sequence: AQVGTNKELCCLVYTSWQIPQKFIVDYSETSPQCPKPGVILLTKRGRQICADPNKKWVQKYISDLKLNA
# T7: CX3CL1/Fractalkine (UniProt P78423 25-100)
# T7 sequence: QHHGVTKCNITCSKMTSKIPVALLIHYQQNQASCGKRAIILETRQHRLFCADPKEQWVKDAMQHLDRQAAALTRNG
# T8: CCL5/RANTES (UniProt P13501 24-91)
# T8 construct: also called 125I-CCL5/RANTES
# T8 sequence: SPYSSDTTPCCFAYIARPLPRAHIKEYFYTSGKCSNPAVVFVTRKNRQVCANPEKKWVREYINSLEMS
# T9: CCL3/MIP-1-alpha (UniProt P10147 24-92)
# T9 construct: also called MIP-1α
# T9 sequence: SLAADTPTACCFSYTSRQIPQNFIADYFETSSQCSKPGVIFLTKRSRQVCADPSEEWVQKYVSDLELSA
# B1: recombinant Evasin-3 produced in E. coli (Met-Evasin-3) (other)
# chain: MLVSTIESRTSGDGADNFDVVSCNKNCTSGQNECPEGCFCGLLGQNKKGHCYKIIGNLSGEPPVVRR
# notes: No tag, not glycosylated; also called mature Met-Evasin-3
# Legend:
# murine CXCL2/MIP-2 [1] = molecular target: T1, murine CXCL2/MIP-2; test: SPR (Biacore 3000), Evasin-3 from E. coli immobilized on CM4 chip, chemokine injected, Langmuir global fit
# CXCL8/IL-8 [2] = molecular target: T2, CXCL8/IL-8; test: as above
# murine CXCL1/KC [3] = molecular target: T3, murine CXCL1/KC; test: as above
# CXCL1/Gro-alpha [4] = molecular target: T4, CXCL1/Gro-alpha; test: as above
# CCL4/MIP-1-beta = molecular target: T5, CCL4/MIP-1-beta; test: SPR (Biacore 3000), Evasin-3 from E. coli immobilized on CM4 chip, chemokine injected
# CCL18/PARC = molecular target: T6, CCL18/PARC; test: as above
# CXCL12/SDF-1-alpha = molecular target: T10, CXCL12/SDF-1-alpha (UniProt P48061 22-89); test: as above
# T10 construct: also called SDF-1α
# T10 sequence (P48061 22-89 limits assumed): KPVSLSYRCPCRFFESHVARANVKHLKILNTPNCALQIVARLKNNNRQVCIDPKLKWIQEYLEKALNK
# CX3CL1/Fractalkine = molecular target: T7, CX3CL1/Fractalkine; test: as above
# CCL11/eotaxin = molecular target: T11, CCL11/eotaxin (UniProt P51671 24-97); test: as above
# T11 construct: also called 125I-eotaxin
# T11 sequence (P51671 24-97 limits assumed): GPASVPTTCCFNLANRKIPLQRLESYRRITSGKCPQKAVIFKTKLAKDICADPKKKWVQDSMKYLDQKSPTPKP
# CCL5/RANTES = molecular target: T8, CCL5/RANTES; test: as above
# CCL3/MIP-1-alpha = molecular target: T9, CCL3/MIP-1-alpha; test: as above
# CCL2/MCP-1 = molecular target: T12, CCL2/MCP-1 (UniProt P13500 24-99); test: as above
# T12 construct: also called 125I-MCP-1
# T12 sequence (P13500 24-99 limits assumed): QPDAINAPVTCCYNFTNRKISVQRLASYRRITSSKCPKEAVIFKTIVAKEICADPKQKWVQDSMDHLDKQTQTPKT
# murine CXCL2/MIP-2 [5] = molecular target: T1, murine CXCL2/MIP-2; test: SPR (Biacore 3000), Evasin-3 from E. coli immobilized on CM4 chip, Kd=kd/ka
# CXCL8/IL-8 [6] = molecular target: T2, CXCL8/IL-8; test: as above
# murine CXCL1/KC [7] = molecular target: T3, murine CXCL1/KC; test: as above
# CXCL1/Gro-alpha [8] = molecular target: T4, CXCL1/Gro-alpha; test: as above
# CXCL8/IL-8 [9] = molecular target: T2, CXCL8/IL-8; test: equilibrium competition receptor binding assay: inhibition of 0.1 nM 125I-IL-8 binding to CHO/CXCR1 cells
binder,measurement,setting,value
B1,koff,murine CXCL2/MIP-2 [1],0.000878 s⁻¹
same,kon,murine CXCL2/MIP-2 [1],1.05e+06 M⁻¹ s⁻¹
same,koff,CXCL8/IL-8 [2],0.00032 s⁻¹
same,kon,CXCL8/IL-8 [2],603000 M⁻¹ s⁻¹
same,koff,murine CXCL1/KC [3],0.00235 s⁻¹
same,kon,murine CXCL1/KC [3],514000 M⁻¹ s⁻¹
same,koff,CXCL1/Gro-alpha [4],0.00269 s⁻¹
same,kon,CXCL1/Gro-alpha [4],2.23e+06 M⁻¹ s⁻¹
same,binding result,CCL4/MIP-1-beta,no binding (tested: 0.5 µg/ml chemokine)
same,binding result,CCL18/PARC,no binding (tested: 0.5 µg/ml chemokine)
same,binding result,CXCL12/SDF-1-alpha,no binding (tested: 0.5 µg/ml chemokine)
same,binding result,CX3CL1/Fractalkine,no binding (tested: 0.5 µg/ml chemokine)
same,binding result,CCL11/eotaxin,no binding (tested: 0.5 µg/ml chemokine)
same,binding result,CCL5/RANTES,no binding (tested: 0.5 µg/ml chemokine)
same,binding result,CCL3/MIP-1-alpha,no binding (tested: 0.5 µg/ml chemokine)
same,binding result,CCL2/MCP-1,no binding (tested: 0.5 µg/ml chemokine)
same,Kd,murine CXCL2/MIP-2 [5],0.84 nM
same,Kd,CXCL8/IL-8 [6],0.53 nM
same,Kd,murine CXCL1/KC [7],4.56 nM
same,Kd,CXCL1/Gro-alpha [8],1.21 nM
same,IC50,CXCL8/IL-8 [9],20 nM
